Data: a protein production outcome set (Wang et al. 2014)

Experiment: label from the status in PepcDB records
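Further: failed if final PepcDB status was selected cloned or expressed and not failed if soluble or beyond.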

| Sequence | protein production |
| --- | --- |
| MIDFTKSKQYTLSIRLSTDGFSFSIYNPINDNSQSLFEKEVDTSLSLTANLKNVFHESDFLSYSYKRVNIMIASKRFTMIPLELFEEEQAELLFYHNHQKRENEIVMYNILKKNNVVIIFGIDKSTYTFLNEQYPEARFYSQSTPLIEYFSIKSRLGNSKKMYASVRKDAIDIYCFERGQLLLANSFECMQTEDRIYYLLYVWKQLEFNQERDELHLTGTLSDKETLMNELKKFILQVFIMNPANNIDMQALLTCE | not failed |
| MTASTALTVAIWIGVMLIGGIGSVLRFLVDRSVARRLARTFPYGTLTVNITGAALLGFLAGLALPKDAALLAGTGFVGAYTTFSTWMLETQRLGEDRQMVSALANIVVSVVLGLAAALLGQWIAQI | failed |
| MRAAGRDRAERRMPHTWSFDYFYSLPFWAALLAVAAVVRLAGGSPVLRGLALLATSNALLLAIPGFSAADLALVWAVSGVALASARTLSRSAPGSSRARRVVVVGSVVAILAFLALFKYRFLQGLLLGPFAQVLAPRASSGVVNPLVLVGVSYFSFKAIHVVVETYRGTLGRVEALAFLNYMTFFPAFISGPINRFGDFSEQLASASPALGADLRAGGERIVHGLFKKVVLVPLVMPYLLTNQARPLDQATLLDVATGLYAYALYFFFDFAGYTDLAIGGARIIGIRLPENFRQPFFQKNIRDLWTNWHMTLTSWLVDYVYWPTVRALRNLEYLRTRPVLLSVIGMNVTFVSCGIWHGEAPHFVLWGAYHGLGISVLNVYQRQKKRIRAPRIQRWFASRYSRWLGTFATFNFFAAGLALFVLDLGQIRALLRALVG | failed |
| MLYLAELLQGKNALITGAGRGIGRAVAIALAKEGVNVGLLARSEENLKAVAKEVEAEGVKAVIATADVSSYEEVTTAIETLKNGLGSIDILINNAGISKFGKFLELDVADWEKIIQVNLMGVYYATRAALPSMIEQQSGDIINISSTAGQKGAPVTSAYSASKFGVLGLTESLAMEVRKHNIRVTALTPSTVATDMAVDLGLTDGNPDKVMQAEDIAEFIVAQLKLNKRTFIKSAGLWSTNP | failed |
| MIEFTALDDLSLLRESVSLECKLAQGRDGKGALPDDFWPTYSAMANTDGGIVILGVRERKGQFEVAGIENPDKLRTELFNHLNNRQKVSVNLLRDEDVRAWPVEGKTLLVVEIPRARRQQRPVYLRGNPLGGHTYRRLHEGDRPLPDE | failed |
| MPMTIKRATWNNGPDLAFDINNKANAAIEKYGREAVINAALGTLLDDKGKIIALPSVYDRLDEMDRSHIASYAPIEGEKDYRKIVIDTLFGPYKPEGYISAIATPGGTGAIRSAIFSYLDEGDPLICHDYYWAPYRKICEEFGRNFKTFEFFTDDFAFNIDVYKEAIDEGIRDSDRIASLINSPGNNPTGYSLSDEEWDEVITFLKEKAEDKDKKITLIVDVAYLEFAGDGDQQRKFFEKFSNLPRNLFVVVAFSMSKSHTAYGLRSGAAVGISSSKEIIEEFEASLAHSARCNWSNGTHAAQNILIELERAENKKIYEQELVDLRNMLKSRADVFVTAAKENKLTMIPYFGGFFTFIPTDKAFDIVKDLEKENIFTIPSAKGIRVAICGVGEEKIPKLVQRLAFYTNKK | not failed |
| MADCDSVTNSPLATATATLHTNRGDIKIALFGNHAPKTVANFVGLAQGTKDYSTQNASGGPSGPFYDGAVFHRVIQGFMIQGGDPTGTGRGGPGYKFADEFHPELQFDKPYLLAMANAGPGTNGSQFFITVGKTPHLNRRHTIFGEVIDAESQRVVEAISKTATDGNDRPTDPVVIESITIS | not failed |
| MGGITITAVISNRDKVTFGEVADHYHSNKLIFGLKYFKNWVLERVAAWFPIPSWRAKFHKMRGVNLGKNVYVGYDVVFDRLHPEMITVGDYSEIGDRCILSAHSRGSLTTRQAYPRTIEPIKIGCGVSVNPGCIITQGVEIGDNSIIGIGSVVTRDISPNSLALGYPARVIKKLDGVGELQTSFNDT | failed |
| MSRVAPRDSAAQAASAVAESVRYQGRKASRQGSEQRRQAILDAAMRLIVRDGVRAVRHRAVAAEAQVPLSATTYYFKDIDDLITDTFALFVERNAEALSAFWSSVEGDLQEMAAVLADDPGARGSLVERIVELAVQYVQVQLTERREHLLAEQAFRQEALLNPRLRELADAHQRILSLGAVHFFQVLGSGQPEQDAKVLTSIILQMEYQGLVDGVEQLAVDEMRAILRRYLNLVMGL | not failed |
| MECKTMERITVNLGERSYPISIGAGLFANPALLSLSAKQKVVIVTNHTVAPLYAPAIISLLDHIGCQHALLELPDGEQYKTLETFNTVMSFLLEHNYSRDVVVIALGGGVIGDLVGFAAACYQRGVDFIQIPTTLLSQVDSSVGGKTAVNHPLGKNMIGAFYQPKAVVIDTDCLTTLPAREFAAGMAEVIKYGIIYDSAFFDWLEAQMEALYALDEQALTYAIARCCQIKAEVVAQDEKESGIRALLNLGHTFGHAIEAHMGYGNWLHGEAVSAGTVMAAKTAQLQGLIDASQFERILAILKKAHLPVRTPENMTFADFMQHMMRDKKVLAGELRLVLPTSIGTSAVVKGVPEAVIAQAIEYCRTV | not failed |
| MVDWSTLPKDLLDLISKSLESSFDLIQFRSVCSSWRSAAEPKSPLPTHHLPILPDNGGSLFPDSAVGFRLSQRSILLIKPHEPCIESDSFGWLIKVEEDLNVPRKVTLLDPLCDTRNSIPENFPRVLDMSKFKVRELGREFKLHYFNTVGDIVESLYLEKAVVKYLDCDGDYKFVLLTIHVSGKLAVFRSWDRAWTVINDMPSPYDDVMLFDGRFFAVDNNGRTVVVDYSSLKLTLVASPVFGGDKKFLIESCGEMLLVDMYLSLEAVEGDPGFVEEIFEHPAFYMNERTVKFKVYRFVEREESWVDVYDLEDKMLFLGDDSTFSASASDILPLCDGSSVFFNGNVFNGEDLGAMQDRDLGVFDFRSGKIELVQKLPEYAKLFWPPPPWITSHARAEDHIGETSSQS | failed |
| MTQDELLVLIEQAATEGWRELDLSGQELTELPGEIGKLQQLESLILGKQVGGYEKVGYRIFQKALGNNLKTLPIELLSLPNLRKLDISGNPLEGIPDVVMQILHLEELILIRVQLTEIPEALAKLTNLTQLILSDNQITEIPEALAKLTNLTQLNLSYNQITEIPEALAKLTNLTQLNLSYNQITEIPEALAKLTNLTQLNLRGNQRTEIPEALAKLTNLTRLNLSYNQRTEIPEALAKLTNLTQLILSDNQIKEIPETIAKLTNLTHLILSGNQIKEIPETIAKLTNLTQLGLDGNQIKEIPEAIAKLTNLTQLGLDGNQIKEIPEAITKLTNLTHLILSGNQIKEIPETIAKLTNLTQLALSSNQITEIPEVLAQLTNLTQLFLSSNQITQIPEALAPLTNLTTLHLRVNQITQIPEAIESLPKLELLDLRGNPLPISPEILGSVYQVGSVEEIFNYLRLLRSGEVRPLNEAKLLLVGQGSVGKTSLIERLIHNKYDRNQPQTDGLKVETWNVQVNSKDIRLNVWDFGGQEIYHATHQFFLTKRSLYLLVCNCRTSEEENRIEYWLKLIESFGGQSPVIIVGNKKDEQPLDINRKALREKYPNIQAIIETSCQDNIGIDELRTAILQQVGNLKEVYDLLPLSWFEVKQQLESMSQDFITYSSYIGICYENKIPEEHNQEQLIDLLHRLGLVLNFREHPILRDTNVLKPNWVTEGIYALLSDENLKTKSKGIFTPADLTRVLNPERYPTKRHGYLIELMKEFELGFELACYPPQFLIAGLLPKDQPDATELEGETLEFQYHYKVLPESIISRFIVNTHERIHNQIYWRSGVMLQYQQHNEIYNIARIKADPEDKKIFIAISGRKETRRSFLAILRDVFQKIHKSLANLEITEWVPVPGYPNHPPLDYQELLGLETMGILEYPIGKLKININIRQLLDGYESLESRRKLQKGDHDLDDRTAYEDILDIAKLAVSRPIITKAEAKAVSENPQFTNNLQGANIANFANEVKDNASQQASNFNQTSGANIAEIMQLINNLRQTVAQFPPEIRDDIIIDIDDVEVEIQKPEKERNTPKLKKRLAALLTAASVAAAPIASVVDFTNNVMELGSKLGIELIQPSP | failed |
| MLSFLSARQSGLEDPLRLRRAQSTRRVLGLELNKDRDVERIHGSGVNTLDIEPVEGRYMLSGGSDGVVVLYDLENASRQPHYTCKAVCSVGRSHPDVHKYSVETVQWYPHDTGMFTSSSFDKTLKVWDTNTLQAADVFNFEETVYSHHMSPAATKHCLVAVGTRGPKVQLCDLKSGSCSHILQGHRQEILAVSWSPRHDYILATASADSRVKLWDVRRASGCLLTLDQHNGKKSQAAESANTAHNGKVNGLCFTSDGLHLLTIGTDNRMRLWNSSSGDNTLVNYGKVCNDSRKGLQFAVSCGCSSEFVFVPHGSTIAVYAVHSGERLAMLKGHYKSVDCCVFQPNFQELYSGSRDCNILAWVPPSYEPVPDDDDEAPAKSQLNPAFADAWSSSDEDG | failed |
| MPTKKADIYTLAKFGDLGAFKESFKIENINDKSESGSGLLHYAISGLKFDIAMFLIENGIDVNITNEVGQTALHYICNYPNIDVAKCILKHGGDINIRDKYYNNALWTAVFNCKGRYYDMVELFMEYSPDVETKNNAGRSPLDFAIQVGNEKLIKMLRKKE | failed |
| TAANAVASRVGAPLGHDYAVLSLSDRLKPWDVVAQRISAVASADMAFAVYNPASKSRTWQVAAMRDLVLEHRSPDTPVIIGRDVAGAQESVRVVRLADLDPAEIDMRCLLIVGSSMTTVVENEHGTRVFTPRRYPG | failed |
| METRAAENTAIFMCKCCNLFSPNQSELLSHVSEKHMEEGVNVDEIIIPLRPLSTPEPPNSSKTRDEFLVMKRKRGRPKGSTKKSSTEEELAENIVSPTEDSPLAPEEGNSLPPSSLECSKCCRKFSNTRQLRKHICIIVLNLGEEEGEAGNESDLELEKKCKEDDREKASKRPRSQKTEKVQKISGKEARQLSGAKKPIISVVLTAHEAIPGATKIVPVEAGPPETGATNSETTSADLVPRRGYQEYAIQQTPYEQPMKSSRLGPTQLKIFTCEYCNKVFKFKHSLQAHLRIHTNEKPYKCPQCSYASAIKANLNVHLRKHTGEKFACDYCSFTCLSKGHLKVHIERVHKKIKQHCRFCKKKYSDVKNLIKHIRDAHDPQDKKVKEALDELCLMTREGKRQLLYDCHICERKFKNELDRDRHMLVHGDKWPFACELCGHGATKYQALELHVRKHPFVYVCAVCRKKFVSSIRLRTHIKEVHGAAQEALVFTSSINQSFCLLEPGGDIQQEALGDQLQLVEEEFALQGVNALKEEACPGDTQLEEGRKEPEAPGEMPAPAVHLASPQAESTALPPCELETTVVSSSDLHSQEVVSDDFLLKNDTSSAEAHAAPEKPPDMQHRSSVQTQGEVITLLLSKAQSAGSDQESHGAQSPLGEGQNMAVLSAGDPDPSRCLRSNPAEASDLLPPVAGGGDTITHQPDSCKAAPEHRSGITAFMKVLNSLQKKQMNTSLCERIRKVYGDLECEYCGKLFWYQVHFDMHVRTHTREHLYYCSQCHYSSITKNCLKRHVIQKHSNILLKCPTDGCDYSTPDKYKLQAHLKVHTALDKRSYSCPVCEKSFSEDRLIKSHIKTNHPEVSMSTISEVLGRRVQLKGLIGKRAMKCPYCDFYFMKNGSDLQRHIWAHEGVKPFKCSLCEYATRSKSNLKAHMNRHSTEKTHLCDMCGKKFKSKGTLKSHKLLHTADGKQFKCTVCDYTAAQKPQLLRHMEQHVSFKPFRCAHCHYSCNISGSLKRHYNRKHPNEEYANVGTGELAAEVLIQQGGLKCPVCSFVYGTKWEFNRHLKNKHGLKVVEIDGDPKWETATEAPEEPSTQYLHITEAEEDVQGTQAAVAALQDLRYTSESGDRLDPTAVNILQQIIELGAETHDATALASVVAMAPGTVTVVKQVTEEEPSSNHTVMIQETVQQASVELAEQHHLVVSSDDVEGIETVTVYTQGGEASEFIVYVQEAMQPVEEQAVEQPAQEL | not failed |
| MFKKEIILGILCLFAACHSNDEIIEEQESPKNEQQEPKARVDIILSHEEQAMSESTNDFAFQLFKQVCVSENRKTNIFISPFSVSLCLSMSANGANGNTLTEIKKVLGFSSSSMDEVNTYNQKLMSSLLNIDNTTQIGIANSVWINQGFVVKNTFIDINKLKYNAWVESLDFSSASAIATINAWCARNTENRLVDIMDEISPEARLILINALYFKGKWTNPFSKEVTKNDFFTNIDGEQVKVDMMCQEESFRCMNNEKFAIAEFPYGNEAFSMVVVLPVENSSLEESLLWLSNDAWKQCETQMSYQKLQVKMPKFSFKYQKPLNSDMSVLGMKDAFILGLADFRNISASENLYLSSLEQFTYLEVNEEGTESAAITTEVPATSTGDDKDIIHFFMDRPFIFMIKEKSTGLILFMGQVTKL | failed |
